In this data set the target is Human Galectin-3 protein (Acro Biosystems, GA3-H5129). As to the kind of experiment: blocking ELISA (Gal3 coated; antibody 3 µg/mL + INSR). (ELISA stands for enzyme-linked immunosorbent assay.)

B1: 15G7.2A7 (protein)
chain 1: EVQLQQSGPELVKPGASVKISCKASGYTFTDYYMNWVKQSHGKSLEWIGDINPNNGGTNYNQKFKGKATLTVDKSSSTAYMELRSLTSEDSAVYYCTSGYGFPYWGQGTLVTVSA
chain 2: DIQMNQSPSSLSASLGDTISITCRASQNINIWLSWYQQKPGNIPQLLIYKASNLHTGVPSRFSGSGSGTDFTLTISSLQPEDIATYYCLQGQSYPLTFGAGTKLVMK
For the protein B1, the “reduction of Gal3-INSR assembly (%)” value is “reduced assembly of Gal3 and INSR by greater than 99% at 3 µg/mL”.

These data come from patent US20230094463.
